Data on 5 molecules can be found in patent US20150266936A1.

Starred links: 1 amine or outer side, 2 acyl side, 3 side chain; linkers in the order of their positions; H or OH if unused. Non-standard residues stand in square brackets, D forms with d. No end group written: not given here. AO = 2-amino-3-(2-(aminooxy)acetamido)propanoic acid, O=C(CON[*:3])NC[C@H](N[*:1])C(=O)[*:2]

For experiment [1], the target named is αvβ3, αvβ5, and α5β1 integrins on U87MG cells (human) (UniProt P06756). Kind of experiment: competition binding on U87MG cells, flow cytometry; competitor 0.25 nM Alexa488-labeled EETI 2.5F; 4 °C, 10 h.
For experiment [2] the target is unchanged. The experiment is described as follows: cell-based or functional assay.
The target is the same in experiment [3]. The experiment is described as follows: ratio of IC50 values, competition binding on U87MG cells.
For experiment [4] the target is unchanged. Kind of experiment: competition binding on U87MG cells, flow cytometry; competitor 5 nM Alexa488-labeled AgRP 7C; 4 °C, 10 h.

B1: EETI 2.5F Dimer (designed binder)
chain: GCPRPRGDNPPLTC[AO]QDSDCLAGCVCGPNGFCG
modifications: not fully specified (residue 15, bridges); ends and bridges not checked; also: homodimer: two copies joined by oxime-bonded dialdehyde linker at X15
In turn, B1 gave an IC50 in experiment [1] of 0.036 nM. In experiment [2], the Adhesion EC50 (nM), U87MG cell adhesion to fibronectin stood at 8 nM; the fold more effective than the monomer in preventing U87MG cell adhesion is 100 fold; the fold more potent than Cilengitide at inhibiting U87MG cell proliferation worked out at 100 fold; the inhibition of U87MG proliferation, 10 nM, 72 h (AlamarBlue) came out at 28%. Also, in experiment [2], the inhibition of U87MG proliferation, 100 nM, 72 h (AlamarBlue) amounted to 52%; the inhibition of U87MG proliferation, 500 nM, 24 h (AlamarBlue) stood at 53%; the inhibition of U87MG proliferation, 500 nM, 48 h (AlamarBlue) stood at 68%; the inhibition of U87MG proliferation, 500 nM, 72 h (AlamarBlue) amounted to 69%. In experiment [2], the inhibition of U87MG proliferation, 1000 nM, 72 h (AlamarBlue) was determined as 70%. Also, the fold increase of apparent binding affinity compared to the monomer in experiment [3] was found to be 46 fold.

B2: AgRP 7C Dimer (designed binder)
chain: GCVRLHESCLGQQVPCCDPAATCYCYGRGDNDLRCYC[AO]
modifications: not fully specified (residue 38, bridges); ends and bridges not checked; also: homodimer: two copies joined by oxime-bonded dialdehyde linker at X38
In the case of B2, in experiment [3], the fold increase of apparent binding affinity compared to the monomer amounted to 4 fold. This molecule displayed a half-inhibitory concentration (IC50) in experiment [4] of 3.2 nM.
As for GCPRPRGDNPPLTC[AO]QDSDCLAGCVCGPNGFCG (designed binder, disulfide (positions not given here)) [EETI 2.5F_AO], the IC50 in experiment [1] is 1.57 nM.
In turn, GCVRLHESCLGQQVPCCDPAATCYCYGRGDNDLRCYCR (designed binder, not fully specified (bridges); cysteine pairing not given here) [AgRP 7C] gave an IC50 in experiment [4] of 13 nM.
GCPRPRGDNPPLTCKQDSDCLAGCVCGPNGFCG (designed binder) [EETI 2.5F] registered an IC50 in experiment [1] of 1.64 nM. In experiment [2], this molecule gave an Adhesion EC50 (nM), U87MG cell adhesion to fibronectin of 180 nM; an inhibition of U87MG proliferation, 10 nM, 72 h (AlamarBlue) of 15%; an inhibition of U87MG proliferation, 100 nM, 72 h (AlamarBlue) of 30%; an inhibition of U87MG proliferation, 500 nM, 24 h (AlamarBlue) of 37%. For the same molecule, in experiment [2], the inhibition of U87MG proliferation, 500 nM, 48 h (AlamarBlue) is 44%; the inhibition of U87MG proliferation, 500 nM, 72 h (AlamarBlue) stood at 50%; the inhibition of U87MG proliferation, 1000 nM, 72 h (AlamarBlue) was 60%.
